In PMC6773851, “Identification of protein-protein and ribonucleoprotein complexes containing Hfq” (Scientific Reports, 2019):

Key:
[1] = test system: HfqH6 (Ec-HfqHis6) (Escherichia coli); assay: MST; conditions: Hill coefficient 4.0; concentration calculated with 1 kb average length; MST: 50 mM Tris-HCl pH 7.6, 50 mM NH4Cl, 1 mM EDTA, 0.1% Triton X100, 5% glycerol; room temperature; 100 nM labelled HfqH6. Total E. coli RNA (EC50 3.2e-7 M …)
Ec-HfqHis6 (purified) [2] = biological target: T1, Ec-HfqHis6 (purified) (E. coli, UniProt P0A6X3 1-102); assay: MST; as the MST without RNA, but in the presence of E. coli total RNA; apparent affinity; conditions: both partners purified
T1 construct: In MST labelled with a fluorescent dye (Protein Labeling Kit RED-NHS); also called HfqH6; purified Hfq
T1 sequence (P0A6X3 whole entry): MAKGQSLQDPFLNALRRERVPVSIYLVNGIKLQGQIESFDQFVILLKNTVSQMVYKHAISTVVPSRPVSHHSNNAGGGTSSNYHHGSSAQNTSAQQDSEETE

Ec-HfqHis6 (purified) [3] = biological target: T1, Ec-HfqHis6 (purified); assay: MST; one partner labelled (RED-NHS) and constant (HfqH6 100 nM), the other titrated; standard buffer (50 mM Tris-HCl pH7.6, 50 mM NH4Cl, 1 mM EDTA, 0.1% Triton X100, 5% glycerol); room temperature; Hill model; without RNA; conditions: both partners purified

Molecule: poly(A)
- K half [1]: 600 nM

B1: Poly(A)polymerase, PAP (purified) (natural protein, E. coli, UniProt P0ABF1 11-465, looked up)
chain: KVLSREESEAEQAVARPQVTVIPREQHAISRKDISENALKVMYRLNKAGYEAWLVGGGVRDLLLGKKPKDFDVTTNATPEQVRKLFRNCRLVGRRFRLAHVMFGPEIIEVATFRGHHEGNVSDRTTSQRGQNGMLLRDNIFGSIEEDAQRRDFTINSLYYSVADFTVRDYVGGMKDLKDGVIRLIGNPETRYREDPVRMLRAVRFAAKLGMRISPETAEPIPRLATLLNDIPPARLFEESLKLLQAGYGYETYKLLCEYHLFQPLFPTITRYFTENGDSPMERIIEQVLKNTDTRIHNDMRVNPAFLFAAMFWYPLLETAQKIAQESGLTYHDAFALAMNDVLDEACRSLAIPKRLTTLTRDIWQLQLRMSRRQGKRAWKLLEHPKFRAAYDLLALRAEVERNAELQRLVKWWGEFQVSAPPDQKGMLNELDEEPSPRRRTRRPRKRAPRREGTA
notes: Poly(A) polymerase I, E. coli
- fold decrease of the apparent affinity in the presence of total RNA (Ec-HfqHis6 (purified) [2]): ~10 fold
- EC50 (Ec-HfqHis6 (purified) [3]): < 10 µM
